Test results reported in article PMC2248716.
Where two headings read alike, the source gives them in different places.

What was measured:
Test in all cases: FRET or BRET
[1] = molecular target: NaV1.4-EYFP (UniProt P15390)
[2] = molecular target: NaV1.4-EYFP (UniProt P15390); remark: listed apart in the source
[3] = molecular target: NaV1.4_(IQ/AA)-EYFP (UniProt P15390)
[4] = molecular target: NaV1.4-EYFP (UniProt P15390); remark: listed apart in the source
[5] = molecular target: NaV1.4-EYFP (UniProt P15390); remark: listed apart in the source
[6] = molecular target: NaV1.4-EYFP (UniProt P15390); remark: listed apart in the source

ECFP-CaM (from UniProt P0DP23 1-149) (natural protein)
FRET efficiency [1]: 10.3% | FRET ratio [1]: 2 | FRET efficiency [2]: 8.2% | FRET ratio [2]: > 1 | FRET ratio [3]: < 1 | FRET efficiency [4]: 22.7% | FRET efficiency [5]: 9.9% | FRET efficiency [6]: 25.4%
